Measurements published in patent US20240343803A1 (SHANDONG SIMCERE BIOPHARMACEUTICAL, published 2024).
One block for each binder: values may come before it.

Tests used:
[1] = target: T1, cynomolgus monkey PVRIG (Novoprotein, Cat NO. C09B) (cynomolgus monkey, UniProt A0A2K5WVV8 41-171); test: ELISA, coated cynomolgus monkey PVRIG
T1 construct: Bought reagent; also called cynomolgus monkey PVRIG protein
T1 sequence: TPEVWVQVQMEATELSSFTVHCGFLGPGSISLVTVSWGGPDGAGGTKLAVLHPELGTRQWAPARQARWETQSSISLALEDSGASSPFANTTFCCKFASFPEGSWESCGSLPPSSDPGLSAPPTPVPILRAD
Experimental: (§1) The ELISA plate was pre-coated with 100 μL/well of 0.5 μg/mL human PVRIG-his (AcroBiosystems, Cat NO. PVG-H52H4) or cynomolgus monkey PVRIG (Novoprotein, Cat NO. C09B). […] A HRP substrate, TMB (Thermo, Cat NO. 34029) was added into wells after washing the plate again for color development. After adding a termination solution to terminate the reaction, the absorbance value was read by a microplate reader (MD i3×). An antibody binding curve was drawn with concentration of antibodies as the abscissa and the corresponding OD value as the ordinate. The EC50 value was calculated by using a Four Parameter Logistic Fit (GraphPadPrism9). The smaller the EC50 value, the stronger the ability of the antibodies binds to human or cynomolgus monkey PVRIG. The positive control antibodies are COM701-hIgG1 (Patent No.:US20180244774A1), COM701-hIgG4 (patent No.: US20180244774A1) and SRF813-hIgG1 (Patent No.:US20200040081A1); and the negative control antibodies are anti-HA HcAb-hIgG1 (Chengdu NB Biolab, Cat NO. NBR022), anti-CD38 HcAb-hIgG1 (in-house) and anti-Fluorescein-hIgG1 (in house).

[2] = target: T2, human PVRIG on FlpinCHO-PVRIG cells (human, UniProt Q6DKI7 41-326); test: FACS, FlpinCHO-PVRIG cells; AUC of MFI curve relative to SRF813-hIgG1
T2 construct: whole, on cells
T2 sequence (looked up): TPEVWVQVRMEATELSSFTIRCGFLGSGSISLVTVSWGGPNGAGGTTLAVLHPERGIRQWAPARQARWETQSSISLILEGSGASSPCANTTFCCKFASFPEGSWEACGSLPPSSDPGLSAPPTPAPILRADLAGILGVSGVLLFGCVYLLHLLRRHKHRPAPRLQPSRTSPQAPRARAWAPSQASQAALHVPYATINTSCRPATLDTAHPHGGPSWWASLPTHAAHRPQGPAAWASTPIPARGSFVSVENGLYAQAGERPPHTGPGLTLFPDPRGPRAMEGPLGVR
Experimental: (§2) The Ham's F12 (Gibico, 21127-022) complete medium containing 10% FBS was then added to terminate the digestion and acquire cell suspension. After counting with a cell counter (Beckman Coulter, Vi-CELL), an appropriate amount of cell suspension was centrifuged at 350×g to remove the supernatant, washed twice with PBS, stained with Zombie violet (Biolegend, 423114) and incubated at room temperature for 20 minutes. After incubation, the cells were added with staining buffer (2% FBS+PBS) to stop staining, centrifuged at 350×g to remove the supernatant, washed twice and resuspended with staining buffer to a density of 2×10⁶ cells/mL. The cells were plated into a 96-well plate (50 μL of cell suspension per well) for further use. The antibodies were diluted from the highest concentration of 46 nM (two-fold concentration) with staining buffer by 3.3-fold serial dilution. The diluted antibodies were added to the well containing 50 μL of cell suspension. The plate was placed on a microplate shaker at 400 rpm for 1 minute to fully mix the antibodies and cells, and then incubated at 4° C. for 30 minutes. After the incubation, the cells were washed twice with staining buffer (200 μL per well) and centrifuged at 350×g for 5 minutes to discard the supernatant. The PE goat anti-human IgG Fc antibody (ebioscience, 12-4998-82) was diluted 250 times with staining buffer, added into the washed wells (100 μL per well), mixed well, and stained at 4° C. for 30 minutes. After staining, the cells were washed twice with staining buffer, finally resuspended with 200 μL staining buffer and analyzed by flow cytometry (BD, Canto II). The stronger the signal, the stronger the ability of the antibodies binds to PVRIG. An antibody binding curve was drawn with concentration of antibodies as the abscissa and the corresponding Mean Fluorescence Intensity (MFI) as the ordinate. The AUC value of the curve was calculated by using a Four Parameter Logistic Fit (GraphPadPrism9). The stronger the AUC value, the stronger the ability of the antibodies binds to FlpinCHO-PVRIG and FlpinCHO-cyno PVRIG. […] The binding activity of the antibodies was normalized to the positive control COM701-hIgG1 and SRF813-hIgG1.

[3] = target: T3, cynomolgus monkey PVRIG on FlpinCHO-cyno PVRIG cells (cynomolgus monkey, UniProt A0A2K5WVV8 41-322); test: FACS, FlpinCHO-cyno PVRIG cells; AUC of MFI curve relative to SRF813-hIgG1
T3 construct: whole, on cells
T3 sequence: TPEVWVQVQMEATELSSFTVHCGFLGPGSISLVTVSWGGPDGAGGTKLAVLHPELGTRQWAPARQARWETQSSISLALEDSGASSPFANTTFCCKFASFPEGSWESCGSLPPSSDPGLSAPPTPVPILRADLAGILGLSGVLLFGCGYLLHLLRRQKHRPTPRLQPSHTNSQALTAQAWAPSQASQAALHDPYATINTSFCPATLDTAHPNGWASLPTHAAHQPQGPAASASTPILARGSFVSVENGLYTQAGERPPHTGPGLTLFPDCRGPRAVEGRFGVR
Experimental: as §2

[4] = target: T4, human PVRIG-his (AcroBiosystems, Cat NO. PVG-H52H4) (human, UniProt Q6DKI7 41-171, limits assumed); test: ELISA, coated human PVRIG-his
T4 construct: Bought reagent; also called human PVRIG protein
T4 sequence (looked up): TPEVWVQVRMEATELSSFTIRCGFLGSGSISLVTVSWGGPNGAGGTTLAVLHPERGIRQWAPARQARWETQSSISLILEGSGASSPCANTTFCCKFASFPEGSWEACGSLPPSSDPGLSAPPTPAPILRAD
Experimental: as §1

[5] = target: T3, cynomolgus monkey PVRIG on …; test: FACS, FlpinCHO-cyno PVRIG cells; AUC of MFI curve relative to COM701-hIgG1
Experimental: as §2

[6] = target: T2, human PVRIG on FlpinCHO-PVRIG cells; test: FACS, FlpinCHO-PVRIG cells; AUC of MFI curve relative to COM701-hIgG1
Experimental: as §2

EC50 [1]: 0.0443 nM
% AUC to SRF813-hIgG1 [2]: 57.4%
% AUC to SRF813-hIgG1 [3]: 52.7%
EC50 [4]: 0.092 nM
% AUC to COM701-hIgG1 [5]: 38.6%
% AUC to COM701-hIgG1 [6]: 42.4%
B1: PVRIG-A113 (Fc fusion)
chain: QLQLVESGGGLVQSGGSLRLSCAASGRTRSMYVMGWFRQAPGKEREFVGRIKWSGDTTYTSYADFVKGRFTLYGNQARNTVYLQMNSLKPEDTAVYYCAALPSDYDYRAASYGVDYWGKGTLVTVSS
notes: Alpaca VHH joined to human IgG1 Fc (VHH-hinge-CH2-CH3); not shown: human IgG1 hinge-CH2-CH3

EC50 [1]: 0.093 nM
% AUC to SRF813-hIgG1 [2]: 34.4%
% AUC to SRF813-hIgG1 [3]: 33.8%
EC50 [4]: 0.255 nM
% AUC to COM701-hIgG1 [5]: 28.7%
% AUC to COM701-hIgG1 [6]: 29.3%
B2: PVRIG-A30 (Fc fusion)
chain: QVQLVESGGGLVQPGGSLRLSCAASGRTDSMNVMGWFRRAPGKEREFVARIKWNGDTTYTAYADFLKGRFTLYGAVARNRVYLQMNSLQPEDTAVYYCAAGEVSGSSYSPDYGMHYWGKGTLVTVSS
notes: as for B1

EC50 [1]: 0.0353 nM
% AUC to SRF813-hIgG1 [2]: 23.9%
% AUC to SRF813-hIgG1 [3]: 23.9%
EC50 [4]: 0.0659 nM
% AUC to COM701-hIgG1 [5]: 18.4%
% AUC to COM701-hIgG1 [6]: 18.1%
B3: PVRIG-A104 (Fc fusion)
chain: EVQVVESGGGLVQAGGSLRLSCAASGRTRSMYVMGWFRQAPGKEREFVGRIKWSGDTTYTSYADFVKGRFTLYGNQARNTVYLQMNSLKPEDTAVYYCYRRSWTNTKLYWGKGIQVTVSS
notes: as for B1

EC50 [1]: 0.0341 nM
% AUC to SRF813-hIgG1 [2]: 232%
% AUC to SRF813-hIgG1 [3]: 80.4%
EC50 [4]: 0.0513 nM
% AUC to COM701-hIgG1 [5]: 66.4%
% AUC to COM701-hIgG1 [6]: 153%
B4: PVRIG-A118 (Fc fusion)
chain: QVQLVESGGGLVQAGGSLRLSCAASETYFDLYVMGWYRQAPGKDRELVATITYTGSIKIVDSVKDRFTISRGDAKNTVSLQMSSLKPEDTAVYFCNADPSGLGRKVYWGQGTQVTVSS
notes: as for B1

EC50 [1]: 0.0192 nM
% AUC to SRF813-hIgG1 [2]: 162%
% AUC to SRF813-hIgG1 [3]: 157%
EC50 [4]: 0.0571 nM
% AUC to COM701-hIgG1 [5]: 122%
% AUC to COM701-hIgG1 [6]: 123%
B5: PVRIG-A105 (Fc fusion)
chain: EVQLVESGGGLVQAGGSLRLSCAASGRTFDRHTMTWFRQAPGKEREFVATASRIPGDTYYSHSVKGRFTISRDNAKNTVYLQLNNLKPEDTAVYYCAATSAYCSEVDCYEKGSWYDNWGQGIQVTVSS
notes: as for B1

EC50 [1]: 0.129 nM
% AUC to SRF813-hIgG1 [2]: 42.7%
% AUC to SRF813-hIgG1 [3]: 29.1%
EC50 [4]: 0.208 nM
% AUC to COM701-hIgG1 [5]: 24.8%
% AUC to COM701-hIgG1 [6]: 36.3%
B6: PVRIG-A15 (Fc fusion)
chain: QVQLVESGGGLVQAGGSLRLSCVASGRTFSANTMAWFRQAPGKEREFVAYTRWTDDNTDYASYADFVKGRFTAFRDNTRNTMYLQMNRLRPEDTAVYYCAAATTRGTYYSAGDYNSWGQGTQVTVSS
notes: as for B1

EC50 [1]: 0.0534 nM
% AUC to SRF813-hIgG1 [2]: 115%
% AUC to SRF813-hIgG1 [3]: 69.7%
EC50 [4]: 0.196 nM
% AUC to COM701-hIgG1 [5]: 59.3%
% AUC to COM701-hIgG1 [6]: 89.5%
B7: PVRIG-A50 (Fc fusion)
chain: EVQLVESGGGLVQPGGSLRLSCAASGFTFSYYDMSWVRQAPGKGLEWVSTINSNGGRTSYVDSVKGRFTISRDNTKNTLYLQMNSLKPEDTAVYYCVEGDPHNFGLENLSLRDFGSWGQGTQVTVSS
notes: as for B1

EC50 [1]: 0.0288 nM
% AUC to SRF813-hIgG1 [2]: 54.5%
% AUC to SRF813-hIgG1 [3]: 62.4%
EC50 [4]: 0.0621 nM
% AUC to COM701-hIgG1 [5]: 47.6%
% AUC to COM701-hIgG1 [6]: 50.6%
B8: PVRIG-A75 (Fc fusion)
chain: QLQLVESGGGLVQSGGSLRLSCAASGRTRSMYVMGWFRQAPGKEREFVGRIKWSGDTTYTSYADFVKGRFTLYGNQARNTVYLQMNSLKPEDTAVYSCAASKFPVSGVPEHYDYWGQGTQVTVSS
notes: as for B1

EC50 [1]: 0.0288 nM
% AUC to SRF813-hIgG1 [2]: 134%
% AUC to SRF813-hIgG1 [3]: 25.3%
EC50 [4]: 0.0543 nM
% AUC to COM701-hIgG1 [5]: 19.3%
% AUC to COM701-hIgG1 [6]: 122%
B9: PVRIG-A35 (Fc fusion)
chain: EVQVVESGGGLVQSGGSLRLSCAASGRTRSMYVMGWFRQAPGKEREFVGRIKWSGDTTYTSYADFVKGRFTLYGNQARNTVYLQMNSLKPEDTAVYYCNGRSRFNVINAWGTGTLVTVAS
notes: as for B1

EC50 [1]: 0.036 nM
% AUC to SRF813-hIgG1 [2]: 181%
% AUC to SRF813-hIgG1 [3]: 25.7%
EC50 [4]: 0.0537 nM
% AUC to COM701-hIgG1 [5]: 19.6%
% AUC to COM701-hIgG1 [6]: 165%
B10: PVRIG-A43 (Fc fusion)
chain: QVQLVESGGGLVQSGGSLRLSCAASGRTRSMYVMGWFRQAPGKEREFVGRIKWSGDTTYTSYADFVKGRFTLYGNQARNTVYLQMNSLKVEDTAVYYCAGRVVPLPSRQRDRYDYWGQGTQVTVSS
notes: as for B1

EC50 [1]: 0.0343 nM
% AUC to SRF813-hIgG1 [2]: 68.6%
% AUC to SRF813-hIgG1 [3]: 82.9%
EC50 [4]: 0.0557 nM
% AUC to COM701-hIgG1 [5]: 63.4%
% AUC to COM701-hIgG1 [6]: 63.3%
B11: PVRIG-A60 (Fc fusion)
chain: QVQLVESGGGLVQSGGSLRLSCAASGRTRSMYVMGWFRQAPGKEREFVGRIKWSGDTTYTSYADFVKGRFTLYGNQARNTVYLQMNSLKPEDAAVYYCNLRRLDGVNYWGKGTLVTVSS
notes: as for B1

EC50 [1]: 0.0418 nM
% AUC to SRF813-hIgG1 [2]: 181%
% AUC to SRF813-hIgG1 [3]: 174%
EC50 [4]: 0.0528 nM
% AUC to COM701-hIgG1 [5]: 128%
% AUC to COM701-hIgG1 [6]: 133%
B12: PVRIG-A117 (Fc fusion)
chain: EVQVVESGGGLVQAGGSLRLSCTASEHIYDLYIMGWYRQAPGKDRELVATITYTGSIYIADSVKDRFTISRGNAKNTVSLQMSGLKPEDTAVYYCNADPSGLGRKLYWGQGTQVTVSS
notes: as for B1
